Our source for the self-cleavage values is the RNAGym collection of RNA variant scans (doi:10.7554/elife.80360).

The labels stand for the following.
B1: CPEB3 Ribozyme (parent)
chain: GGGGGCCACAGCAGAAGCGUUCACGUCGCGGCCCCUGUCAGAUUCUGGUGAAUCUGCGAAUUCUGCUGU

In this data set the parent is B1. Description: self-cleavage, relative activity (ratio to wild type); higher = more cleavage; co-transcriptional.
Regarding G14U U67C, the self-cleavage was determined as 0.55.

Regarding G14U A15G, the self-cleavage is 0.843. With G14C G47A, the self-cleavage is 0.729. Regarding G14C G47U, the self-cleavage was found to be 0.725.

For G14C U49A, the self-cleavage was found to be 0.712. Consider G14C U49G, for which the self-cleavage was determined as 0.689. Next, G14U U43C: 0.472.

In the case of G14U U43G, the self-cleavage came to 0.278. For G14U A60G the value was 0.4; for G14C G25U, 0.0786. As for G14C G25A, the self-cleavage came to 0.142. Next, G14C G25C: 0.167; G14U U26A: 0.555; G14U U26G: 0.559. Next, G14C G31A: 0.228; G14C G31U: 0.179; G14C G31C: 0.167. Turning to G14C G56C, the self-cleavage was 0.24.

As for G14C G56U, the self-cleavage was found to be 0.236. Regarding G14U A59U, the self-cleavage came to 0.365. Next, G14A U38A: 0.478.

With A15C G47U, the self-cleavage was 0.916.

As for G14U C24U, the self-cleavage stood at 0.137.

Take G14U C24G: the self-cleavage turned out to be 0.109. On to G14A U53C, for which the self-cleavage is 0.273. For G14C G58A the value was 0.505; for G14C U46G, 0.599; for G14C U46A, 0.651. For G14C U46C the value was 0.48; for G14C G48C, 0.677. As to G14C G48A, the self-cleavage is 0.703. For A15C C22U, the self-cleavage was 0.2. For A15C C66U, the self-cleavage was determined as 0.725. On to A15C C66A, for which the self-cleavage worked out at 0.357. Regarding G14C A59U, the self-cleavage turned out to be 0.263. With G14C A59C, the self-cleavage was determined as 0.262. In the case of G14U C39G, the self-cleavage is 0.373. Consider G14U C39U, for which the self-cleavage is 0.394. G14C A23C: the self-cleavage amounted to 0.555. On to G14C A23U, for which the self-cleavage was 0.761. G14C C63A: the self-cleavage amounted to 0.928. Next, G14C C63U: 0.862; G14C C54U: 0.544. Next, G14C C54G: 0.251; G14C U36A: 0.109; G14C U36G: 0.19. As to G14C U36C, the self-cleavage amounted to 0.37.

As for G14C U69G, the self-cleavage is 0.726. Next, G14C U69C: 0.968; A15C G37C: 0.105; A15C G37U: 0.168. For A15C G37A the value was 0.196; for G14U U53C, 0.33; for G14U U53G, 0.439. Consider G14U U53A, for which the self-cleavage came to 0.356. For A15C A16U the value was 0.49; for A15C A16C, 0.111; for A15C A16G, 0.142.

As to G14C U26C, the self-cleavage was determined as 0.327. Next, G14C U26G: 0.256; G14U U36A: 0.18; G14A U44C: 0.363. For G14A U44A the value was 0.538; for G14A U44G, 0.64; for G14C C66U, 0.358. For the variant G14C C66A, the self-cleavage was determined as 0.244. Next, G14U U21A: 0.733. Next, G14U U21C: 0.379. For G14C C35G the value was 0.191. As for G14C C35U, the self-cleavage is 0.464. Next, G14U A52C: 0.715; G14U A52U: 0.767; G14C C18G: 0.101. For G14C U62G the value was 0.368; for G14C U62C, 0.352. For G14C U62A the value was 0.394; for A15C C24U, 0.27.

Turning to A15C C24A, the self-cleavage was 0.273.

For G14C U44G, the self-cleavage was found to be 0.39. For G14C U44A, the self-cleavage worked out at 0.392. For G14U G25C the value was 0.204; for G14U G25A, 0.141; for G14U G25U, 0.124. For G14C C45U the value was 0.562. For G14C C45G the value was 0.468; for G14C C45A, 0.406. For the variant A15C C63G, the self-cleavage is 0.921. Next, G14U G31A: 0.305; G14U G31U: 0.164.

G14U G31C: the self-cleavage was 0.163. For G14C G65A the value was 0.291; for G14C G65C, 0.231. For A15C C54G the value was 0.567; for A15C C54U, 0.865; for A15C C54A, 0.447.

With A15C, the self-cleavage was found to be 0.923. Consider G14C C39A, for which the self-cleavage stood at 0.225. For G14C C39U the value was 0.286; for G14C C39G, 0.248; for G14U A51C, 0.61. G14U A51G: the self-cleavage was determined as 0.842. For G14C A51G the value was 0.666; for G14C A51C, 0.337; for G14A U26A, 0.346. For G14C U61G, the self-cleavage stood at 0.266. Next, G14C U61A: 0.346; G14C C22U: 0.0705; G14C C22A: 0.142. For G14C C22G the value was 0.122; for A15C A59C, 0.288. A15C A60U: the self-cleavage amounted to 0.377. Consider A15C A60C, for which the self-cleavage worked out at 0.308. For A15C A60G the value was 0.292; for G14U C27U, 0.15. As for G14C A60G, the self-cleavage was determined as 0.265. Next, G14U G47A: 0.836. Regarding G14U G47U, the self-cleavage stood at 0.857. For G14U G47C the value was 0.877. Next, G14U G28U: 0.164; G14U C33U: 0.79; G14U C33A: 0.522.

For A15C G28U, the self-cleavage is 0.191. With A15C G28A, the self-cleavage was 0.138. On to A15C G28C, for which the self-cleavage amounted to 0.146. Take G14U C22U: the self-cleavage was determined as 0.15. On to G14U C22A, for which the self-cleavage came to 0.15. For G14C A52G the value was 0.57; for G14U G65A, 0.32. As for G14U G65U, the self-cleavage came out at 0.334. Next, G14U G65C: 0.384; G14U G68U: 0.816; A15C A52G: 0.98. For the variant A15C G31C, the self-cleavage turned out to be 0.27. Next, A15C G31A: 0.456. On to G14U C34G, for which the self-cleavage is 0.347. G14U C34A: the self-cleavage turned out to be 0.526. Next, G14U C34U: 0.833; G14A U20G: 0.124. G14A U20A: the self-cleavage turned out to be 0.132. As to G14U C29U, the self-cleavage worked out at 0.111. Regarding G14U C29G, the self-cleavage is 0.167. For G14U C29A the value was 0.19; for G14A G68C, 0.756; for A15C C18U, 0.296. A15C C18G: the self-cleavage was found to be 0.0508. For A15C C18A the value was 0.174; for G14U G19A, 0.148. Next, G14C U20A: 0.102; G14C U20C: 0.116; G14C C57U: 0.28. For G14C C57A the value was 0.325; for G14U G17A, 0.145; for G14U G17U, 0.161. For the variant G14U C32U, the self-cleavage was determined as 0.816. Next, G14U C32A: 0.333; A15C C57U: 0.423; G14C C27U: 0.14. Next, G14C C27G: 0.159.

For the variant G14C C27A, the self-cleavage was found to be 0.146. G14A G56C: the self-cleavage is 0.261. Next, G14A G56U: 0.321; A15C C39G: 0.596; A15C C39U: 0.535.

Turning to G14A U64G, the self-cleavage amounted to 0.576. For G14A U64C the value was 0.346; for A15C C27U, 0.119. For A15C C27G, the self-cleavage came to 0.123.
